Among the data in PMC3422313 are stoichiometry N and Kd values, retold here.

In experiment [1] the target is p24:V3 WT chimera (HIV p24 CA protein with the full V3 loop in place of the cyclophillin binding loop) (HIV) (UniProt P12493). Nature of the experiment: SEC; Superdex-200 PC; 30 mM Tris pH 8.0, 300 mM NaCl, 2 mM bME; 0.04 mL/min; compared with aldolase (158 kDa) and ferritin (440 kDa).
Experiment [2] addresses human monoclonal anti-V3 antibody 447-52D (ARP3219) (human). Put plainly: SPR; BIAcore 3000; mAb 447-52D immobilised on CM5 by EDC/NHS (about 2000 RU); p24:V3 proteins as analyte 0.10-4.0 uM; HBS (10 mM Hepes, 150 mM NaCl, 3 mM EDTA, pH 7.4), 0.1 mM TCEP; 20 ul/min; 25 C; 1:1 Langmuir fit.
For experiment [3], the target named is p24:V3 CCAA mutant (chimeric p24:V3 protein with A14C/E45C/W184A/M185A in the p24 sequence) (HIV). Put plainly: cross-linking; disulfide cross-linking by dialysis into assembly buffer (50 mM Tris pH 8, 1 M NaCl) with beta ME reduced to 20 mM or lower; read by non-reducing SDS-PAGE, 10% gel.
The target is the same in experiment [4]. Nature of the experiment: SEC; Superdex-200 PC; 30 mM Tris pH 8.0, 300 mM NaCl, 2 mM bME; 0.04 mL/min; compared with aldolase (158 kDa) and ferritin (440 kDa).
In experiment [5] the target is p24:V3 CC mutant (chimeric p24:V3 protein with A14C/E45C in the p24 sequence) (HIV) (UniProt P12493). Nature of the experiment: cross-linking; disulfide cross-linking by dialysis into assembly buffer (50 mM Tris pH 8, 1 M NaCl) with beta ME reduced to 20 mM or lower; read by non-reducing SDS-PAGE, 10% gel.

Sequence of human monoclonal anti-V3 antibody 447-52D (ARP3219) (human) (heavy, as listed by the source, chain 1 of 2): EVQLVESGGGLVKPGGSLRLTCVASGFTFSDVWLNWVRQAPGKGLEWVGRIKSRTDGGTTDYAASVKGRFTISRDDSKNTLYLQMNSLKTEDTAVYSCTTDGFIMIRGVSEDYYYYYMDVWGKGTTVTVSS
Sequence of human monoclonal anti-V3 antibody 447-52D (ARP3219) (human) (light, as listed by the source, chain 2 of 2): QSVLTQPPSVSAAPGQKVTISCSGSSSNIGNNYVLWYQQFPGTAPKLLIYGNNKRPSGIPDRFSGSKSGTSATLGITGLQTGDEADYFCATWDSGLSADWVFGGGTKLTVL

The term stoichiometry N denotes a count of units in the complex or per binding partner. In general, Kd refers to the constant that tells how readily two partners part at equilibrium. A higher Kd goes with lower affinity. In turn, “p24:V3 WT chimera (HIV p24 CA protein with the full V3 loop in place of the cyclophillin binding loop) (from UniProt P12493 1-85; P12493 101-500)” displayed a stoichiometry N in experiment [1] of 6. In addition, the Kd in experiment [2] was 10.1 µM.
As to “p24:V3 CCAA mutant (chimeric p24:V3 protein with A14C/E45C/W184A/M185A in the p24 sequence)”, the stoichiometry N in experiment [3] and in experiment [4] was 6 in each case.
“p24:V3 CC mutant (chimeric p24:V3 protein with A14C/E45C in the p24 sequence) (from UniProt P12493 101-500)” yielded a stoichiometry N in experiment [5] of 6. In experiment [2], this substance displayed a Kd of 13.4 µM.
